Drawing on patent US20210139548A1 (published 2021), this text covers Ki for six molecules.

*1 amine or outer side, *2 acyl side, *3 side chain or, on linkers, in order; H or OH if unused. Side-chain parts run from the residue outwards. The star is where a group is joined. C18 diacid = O=C(O)CCCCCCCCCCCCCCCCC(=O)*; γGlu = O=C(O)[C@H](CCC(=O)[*:2])N[*:1]; Isovaleryl = CC(C)CC(=O)*; AEEA = NCCOCCOCC(=O)O

T1: human neuropeptide Y2 receptor (human, UniProt P49146 1-381)
T1 construct: whole, on cells; also called hNPY2 receptor; hNPY2-R
T1 sequence (looked up): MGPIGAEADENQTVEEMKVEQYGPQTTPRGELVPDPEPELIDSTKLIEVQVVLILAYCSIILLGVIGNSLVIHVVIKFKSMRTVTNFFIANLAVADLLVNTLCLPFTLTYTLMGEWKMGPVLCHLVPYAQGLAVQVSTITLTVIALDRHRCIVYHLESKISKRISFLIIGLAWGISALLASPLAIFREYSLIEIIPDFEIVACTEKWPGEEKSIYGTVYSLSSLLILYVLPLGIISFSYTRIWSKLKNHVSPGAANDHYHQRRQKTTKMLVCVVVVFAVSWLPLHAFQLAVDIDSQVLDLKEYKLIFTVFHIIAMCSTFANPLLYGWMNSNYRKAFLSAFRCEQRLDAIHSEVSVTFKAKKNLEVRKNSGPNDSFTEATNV

B1: Compound 20 (peptide)
peptide: Isovaleryl-APEK([AEEA-AEEA-γGlu-C18 diacid])PEEDAAPEELQRYYVELRHYYNWLTRQRY-NH2
SMILES: CC(C)CC(=O)N[C@@H](C)C(=O)N1CCC[C@H]1C(=O)N[C@@H](CCC(=O)O)C(=O)N[C@@H](CCCCNC(=O)COCCOCCNC(=O)COCCOCCNC(=O)CC[C@H](NC(=O)CCCCCCCCCCCCCCCCC(=O)O)C(=O)O)C(=O)N1CCC[C@H]1C(=O)N[C@@H](CCC(=O)O)C(=O)N[C@@H](CCC(=O)O)C(=O)N[C@@H](CC(=O)O)C(=O)N[C@@H](C)C(=O)N[C@@H](C)C(=O)N1CCC[C@H]1C(=O)N[C@@H](CCC(=O)O)C(=O)N[C@@H](CCC(=O)O)C(=O)N[C@@H](CC(C)C)C(=O)N[C@@H](CCC(N)=O)C(=O)N[C@@H](CCCNC(=N)N)C(=O)N[C@@H](Cc1ccc(O)cc1)C(=O)N[C@@H](Cc1ccc(O)cc1)C(=O)N[C@H](C(=O)N[C@@H](CCC(=O)O)C(=O)N[C@@H](CC(C)C)C(=O)N[C@@H](CCCNC(=N)N)C(=O)N[C@@H](Cc1c[nH]cn1)C(=O)N[C@@H](Cc1ccc(O)cc1)C(=O)N[C@@H](Cc1ccc(O)cc1)C(=O)N[C@@H](CC(N)=O)C(=O)N[C@@H](Cc1c[nH]c2ccccc12)C(=O)N[C@@H](CC(C)C)C(=O)N[C@H](C(=O)N[C@@H](CCCNC(=N)N)C(=O)N[C@@H](CCC(N)=O)C(=O)N[C@@H](CCCNC(=N)N)C(=O)N[C@@H](Cc1ccc(O)cc1)C(N)=O)[C@@H](C)O)C(C)C
B2: Compound 25 (peptide)
peptide: Isovaleryl-APEK([AEEA-AEEA-γGlu-C18 diacid])PEEEASAEELQRYYVSLRHYYNWLTRQRY-NH2
SMILES: CC(C)CC(=O)N[C@@H](C)C(=O)N1CCC[C@H]1C(=O)N[C@@H](CCC(=O)O)C(=O)N[C@@H](CCCCNC(=O)COCCOCCNC(=O)COCCOCCNC(=O)CC[C@H](NC(=O)CCCCCCCCCCCCCCCCC(=O)O)C(=O)O)C(=O)N1CCC[C@H]1C(=O)N[C@@H](CCC(=O)O)C(=O)N[C@@H](CCC(=O)O)C(=O)N[C@@H](CCC(=O)O)C(=O)N[C@@H](C)C(=O)N[C@@H](CO)C(=O)N[C@@H](C)C(=O)N[C@@H](CCC(=O)O)C(=O)N[C@@H](CCC(=O)O)C(=O)N[C@@H](CC(C)C)C(=O)N[C@@H](CCC(N)=O)C(=O)N[C@@H](CCCNC(=N)N)C(=O)N[C@@H](Cc1ccc(O)cc1)C(=O)N[C@@H](Cc1ccc(O)cc1)C(=O)N[C@H](C(=O)N[C@@H](CO)C(=O)N[C@@H](CC(C)C)C(=O)N[C@@H](CCCNC(=N)N)C(=O)N[C@@H](Cc1c[nH]cn1)C(=O)N[C@@H](Cc1ccc(O)cc1)C(=O)N[C@@H](Cc1ccc(O)cc1)C(=O)N[C@@H](CC(N)=O)C(=O)N[C@@H](Cc1c[nH]c2ccccc12)C(=O)N[C@@H](CC(C)C)C(=O)N[C@H](C(=O)N[C@@H](CCCNC(=N)N)C(=O)N[C@@H](CCC(N)=O)C(=O)N[C@@H](CCCNC(=N)N)C(=O)N[C@@H](Cc1ccc(O)cc1)C(N)=O)[C@@H](C)O)C(C)C
B3: Compound 21 (peptide)
peptide: Isovaleryl-APEK([AEEA-AEEA-γGlu-C18 diacid])PEEDASPEELQKYYVSLRHYYNWLTRQRY-NH2
SMILES: CC(C)CC(=O)N[C@@H](C)C(=O)N1CCC[C@H]1C(=O)N[C@@H](CCC(=O)O)C(=O)N[C@@H](CCCCNC(=O)COCCOCCNC(=O)COCCOCCNC(=O)CC[C@H](NC(=O)CCCCCCCCCCCCCCCCC(=O)O)C(=O)O)C(=O)N1CCC[C@H]1C(=O)N[C@@H](CCC(=O)O)C(=O)N[C@@H](CCC(=O)O)C(=O)N[C@@H](CC(=O)O)C(=O)N[C@@H](C)C(=O)N[C@@H](CO)C(=O)N1CCC[C@H]1C(=O)N[C@@H](CCC(=O)O)C(=O)N[C@@H](CCC(=O)O)C(=O)N[C@@H](CC(C)C)C(=O)N[C@@H](CCC(N)=O)C(=O)N[C@@H](CCCCN)C(=O)N[C@@H](Cc1ccc(O)cc1)C(=O)N[C@@H](Cc1ccc(O)cc1)C(=O)N[C@H](C(=O)N[C@@H](CO)C(=O)N[C@@H](CC(C)C)C(=O)N[C@@H](CCCNC(=N)N)C(=O)N[C@@H](Cc1c[nH]cn1)C(=O)N[C@@H](Cc1ccc(O)cc1)C(=O)N[C@@H](Cc1ccc(O)cc1)C(=O)N[C@@H](CC(N)=O)C(=O)N[C@@H](Cc1c[nH]c2ccccc12)C(=O)N[C@@H](CC(C)C)C(=O)N[C@H](C(=O)N[C@@H](CCCNC(=N)N)C(=O)N[C@@H](CCC(N)=O)C(=O)N[C@@H](CCCNC(=N)N)C(=O)N[C@@H](Cc1ccc(O)cc1)C(N)=O)[C@@H](C)O)C(C)C
B4: Compound 24 (peptide)
peptide: Isovaleryl-APEK([AEEA-AEEA-γGlu-C18 diacid])PEEDASPEELQRYYVSLRKYYNWLTRQRY-NH2
SMILES: CC(C)CC(=O)N[C@@H](C)C(=O)N1CCC[C@H]1C(=O)N[C@@H](CCC(=O)O)C(=O)N[C@@H](CCCCNC(=O)COCCOCCNC(=O)COCCOCCNC(=O)CC[C@H](NC(=O)CCCCCCCCCCCCCCCCC(=O)O)C(=O)O)C(=O)N1CCC[C@H]1C(=O)N[C@@H](CCC(=O)O)C(=O)N[C@@H](CCC(=O)O)C(=O)N[C@@H](CC(=O)O)C(=O)N[C@@H](C)C(=O)N[C@@H](CO)C(=O)N1CCC[C@H]1C(=O)N[C@@H](CCC(=O)O)C(=O)N[C@@H](CCC(=O)O)C(=O)N[C@@H](CC(C)C)C(=O)N[C@@H](CCC(N)=O)C(=O)N[C@@H](CCCNC(=N)N)C(=O)N[C@@H](Cc1ccc(O)cc1)C(=O)N[C@@H](Cc1ccc(O)cc1)C(=O)N[C@H](C(=O)N[C@@H](CO)C(=O)N[C@@H](CC(C)C)C(=O)N[C@@H](CCCNC(=N)N)C(=O)N[C@@H](CCCCN)C(=O)N[C@@H](Cc1ccc(O)cc1)C(=O)N[C@@H](Cc1ccc(O)cc1)C(=O)N[C@@H](CC(N)=O)C(=O)N[C@@H](Cc1c[nH]c2ccccc12)C(=O)N[C@@H](CC(C)C)C(=O)N[C@H](C(=O)N[C@@H](CCCNC(=N)N)C(=O)N[C@@H](CCC(N)=O)C(=O)N[C@@H](CCCNC(=N)N)C(=O)N[C@@H](Cc1ccc(O)cc1)C(N)=O)[C@@H](C)O)C(C)C
B5: Compound 27 (peptide)
peptide: Isovaleryl-APEK([AEEA-AEEA-γGlu-C18 diacid])PPEDAEPEELQRYYVSLRHYYNWLTRQRY-NH2
SMILES: CC(C)CC(=O)N[C@@H](C)C(=O)N1CCC[C@H]1C(=O)N[C@@H](CCC(=O)O)C(=O)N[C@@H](CCCCNC(=O)COCCOCCNC(=O)COCCOCCNC(=O)CC[C@H](NC(=O)CCCCCCCCCCCCCCCCC(=O)O)C(=O)O)C(=O)N1CCC[C@H]1C(=O)N1CCC[C@H]1C(=O)N[C@@H](CCC(=O)O)C(=O)N[C@@H](CC(=O)O)C(=O)N[C@@H](C)C(=O)N[C@@H](CCC(=O)O)C(=O)N1CCC[C@H]1C(=O)N[C@@H](CCC(=O)O)C(=O)N[C@@H](CCC(=O)O)C(=O)N[C@@H](CC(C)C)C(=O)N[C@@H](CCC(N)=O)C(=O)N[C@@H](CCCNC(=N)N)C(=O)N[C@@H](Cc1ccc(O)cc1)C(=O)N[C@@H](Cc1ccc(O)cc1)C(=O)N[C@H](C(=O)N[C@@H](CO)C(=O)N[C@@H](CC(C)C)C(=O)N[C@@H](CCCNC(=N)N)C(=O)N[C@@H](Cc1c[nH]cn1)C(=O)N[C@@H](Cc1ccc(O)cc1)C(=O)N[C@@H](Cc1ccc(O)cc1)C(=O)N[C@@H](CC(N)=O)C(=O)N[C@@H](Cc1c[nH]c2ccccc12)C(=O)N[C@@H](CC(C)C)C(=O)N[C@H](C(=O)N[C@@H](CCCNC(=N)N)C(=O)N[C@@H](CCC(N)=O)C(=O)N[C@@H](CCCNC(=N)N)C(=O)N[C@@H](Cc1ccc(O)cc1)C(N)=O)[C@@H](C)O)C(C)C
B6: Compound 26 (peptide)
peptide: Isovaleryl-APEK([AEEA-AEEA-γGlu-C18 diacid])PPEDATPEELQRYYVSLRHYYNWLTRQRY-NH2
SMILES: CC(C)CC(=O)N[C@@H](C)C(=O)N1CCC[C@H]1C(=O)N[C@@H](CCC(=O)O)C(=O)N[C@@H](CCCCNC(=O)COCCOCCNC(=O)COCCOCCNC(=O)CC[C@H](NC(=O)CCCCCCCCCCCCCCCCC(=O)O)C(=O)O)C(=O)N1CCC[C@H]1C(=O)N1CCC[C@H]1C(=O)N[C@@H](CCC(=O)O)C(=O)N[C@@H](CC(=O)O)C(=O)N[C@@H](C)C(=O)N[C@H](C(=O)N1CCC[C@H]1C(=O)N[C@@H](CCC(=O)O)C(=O)N[C@@H](CCC(=O)O)C(=O)N[C@@H](CC(C)C)C(=O)N[C@@H](CCC(N)=O)C(=O)N[C@@H](CCCNC(=N)N)C(=O)N[C@@H](Cc1ccc(O)cc1)C(=O)N[C@@H](Cc1ccc(O)cc1)C(=O)N[C@H](C(=O)N[C@@H](CO)C(=O)N[C@@H](CC(C)C)C(=O)N[C@@H](CCCNC(=N)N)C(=O)N[C@@H](Cc1c[nH]cn1)C(=O)N[C@@H](Cc1ccc(O)cc1)C(=O)N[C@@H](Cc1ccc(O)cc1)C(=O)N[C@@H](CC(N)=O)C(=O)N[C@@H](Cc1c[nH]c2ccccc12)C(=O)N[C@@H](CC(C)C)C(=O)N[C@H](C(=O)N[C@@H](CCCNC(=N)N)C(=O)N[C@@H](CCC(N)=O)C(=O)N[C@@H](CCCNC(=N)N)C(=O)N[C@@H](Cc1ccc(O)cc1)C(N)=O)[C@@H](C)O)C(C)C)[C@@H](C)O

The test has as its target T1, human neuropeptide Y2 receptor. The test can be described thus: radioligand competition (125I-PYY(1-36)), hNPY2R membranes. In a few lines:
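Commercial human Y2 receptor membranes (0.5 μg protein/well) were incubated with peptide for 2 h at room temperature in 50 mM HEPES, 5 mM MgCl₂, 1 mM CaCl₂, pH 7.4, with 0.2% ovalbumin. Bound radioligand was separated on PEI-soaked GF/C filters and counted by scintillation, and IC₅₀ came from nonlinear sigmoidal regression.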
By Ki is commonly meant the dissociation constant of the complex between target and ligand, obtained from inhibition or displacement. B1: the affinity, expressed as Ki, was 2.57 nM. For the molecule B2, the Ki came out at 4.36 nM. This Ki is about 1.7-fold higher than that of the molecule before.

B3 showed a Ki of 1.52 nM. B4 came in with a Ki of 2.22 nM. This Ki and that of the molecule before are within 1.5-fold of each other. Consider B5, for which the Ki is 0.96 nM. Consider B6, for which the Ki amounted to 0.77 nM. The Ki values of the last two molecules are within 1.5-fold of each other.
